{
  "source": "patent US20030009022A1",
  "about": "(published 2003)",
  "experiment_in_all_cases": "cell-based or functional assay",
  "key": {"[1]": {"biological_target": "T1, human formyl peptide receptor like-1 (FPRL-1) receptor (human, UniProt P25090 1-351)", "T1 sequence (looked up)": "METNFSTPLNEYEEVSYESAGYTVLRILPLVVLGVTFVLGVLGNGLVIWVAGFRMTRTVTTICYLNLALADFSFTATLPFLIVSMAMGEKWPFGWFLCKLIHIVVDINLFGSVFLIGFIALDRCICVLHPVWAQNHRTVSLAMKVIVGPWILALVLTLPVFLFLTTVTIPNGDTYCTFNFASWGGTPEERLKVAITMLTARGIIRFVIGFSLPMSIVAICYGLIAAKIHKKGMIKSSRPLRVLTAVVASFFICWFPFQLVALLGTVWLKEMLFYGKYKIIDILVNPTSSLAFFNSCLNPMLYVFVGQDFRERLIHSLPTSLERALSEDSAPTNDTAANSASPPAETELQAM"}, "[2]": {"biological_target": "T2, human formyl peptide receptor FPR1 (human, UniProt P21462 1-350)", "T2 sequence (looked up)": "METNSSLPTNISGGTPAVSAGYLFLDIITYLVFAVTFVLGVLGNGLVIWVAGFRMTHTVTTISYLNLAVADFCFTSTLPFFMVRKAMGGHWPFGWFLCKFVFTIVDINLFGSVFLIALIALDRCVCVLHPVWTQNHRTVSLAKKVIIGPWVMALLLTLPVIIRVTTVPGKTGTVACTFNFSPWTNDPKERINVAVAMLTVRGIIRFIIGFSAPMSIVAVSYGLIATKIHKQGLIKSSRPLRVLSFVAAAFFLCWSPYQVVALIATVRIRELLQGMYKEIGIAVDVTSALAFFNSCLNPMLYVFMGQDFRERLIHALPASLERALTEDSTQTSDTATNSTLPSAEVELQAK"}, "[3]": {"biological_target": "T1, human formyl peptide receptor like-1 …", "remark": "listed apart in the source"}, "[4]": {"biological_target": "T2, human formyl peptide receptor FPR1", "remark": "listed apart in the source"}},
  "note": "Ends that are not written are not given here. * marks the point of attachment. For = O=C*",
  "data": [
    {"binder": "LESIFRSLLFRVM", "note": "[peptide MMK-1]", "values": [
      {"measurement": "EC50(nM), transient Ca2+ flux in HEK293/Gα16 cells expressing FPRL-1", "setting": "[1]", "value": "< 2", "unit": "nM"},
      {"measurement": "EC50(nM), transient Ca2+ flux in HEK293/Gα16 cells expressing FPR1", "setting": "[2]", "value": "> 10000", "unit": "nM"}
    ]},
    {"binder": "MMWLL", "note": "[peptide MMWLL, Met-Met-Trp-Leu-Leu]", "values": [
      {"measurement": "EC50(nM), transient Ca2+ flux in HEK293/Gα16 cells expressing FPRL-1", "setting": "[1]", "value": 80, "unit": "nM"},
      {"measurement": "EC50(nM), transient Ca2+ flux in HEK293/Gα16 cells expressing FPR1", "setting": "[2]", "value": "< 0.3", "unit": "nM"}
    ]},
    {"binder": "For-Met-Leu-Phe", "note": "[fMLP, formyl-MLF]", "values": [
      {"measurement": "EC50, transient calcium mobilization in HEK293/Gα16 cells expressing FPRL-1", "setting": "[3]", "value": 400, "unit": "nM"},
      {"measurement": "EC50, calcium mobilization in human neutrophils", "setting": "[4]", "value": "< 0.2", "unit": "nM"},
      {"measurement": "EC50(nM), transient Ca2+ flux in HEK293/Gα16 cells expressing FPRL-1", "setting": "[1]", "value": 40, "unit": "nM"},
      {"measurement": "EC50(nM), transient Ca2+ flux in HEK293/Gα16 cells expressing FPR1", "setting": "[2]", "value": "< 0.3", "unit": "nM"}
    ]},
    {"binder": "RFPKNCHLRPPRMILFTALV", "note": "[peptide AF-3]", "values": [
      {"measurement": "EC50(nM), transient Ca2+ flux in HEK293/Gα16 cells expressing FPRL-1", "setting": "[1]", "value": 650, "unit": "nM"},
      {"measurement": "EC50(nM), transient Ca2+ flux in HEK293/Gα16 cells expressing FPR1", "setting": "[2]", "value": 380, "unit": "nM"}
    ]},
    {"binder": "For-SLLWLTCRPWEAM", "note": "[f-A5, N-terminally formylated derivative of peptide A5]", "values": [
      {"measurement": "EC50 against that of A5, calcium mobilization in indo-1 loaded human neutrophils", "setting": "[3]", "value": 10, "unit": "fold lower EC50 than A5"},
      {"measurement": "EC50, calcium mobilization in HEK293/Gα16 cells expressing FPR1", "setting": "[4]", "value": 0.1, "unit": "nM"},
      {"measurement": "EC50(nM), transient Ca2+ flux in HEK293/Gα16 cells expressing FPRL-1", "setting": "[1]", "value": 2, "unit": "nM"},
      {"measurement": "EC50(nM), transient Ca2+ flux in HEK293/Gα16 cells expressing FPR1", "setting": "[2]", "value": 10, "unit": "nM"}
    ]},
    {"binder": "PPFFFRPVGMF", "note": "[peptide DM-1]", "values": [
      {"measurement": "EC50(nM), transient Ca2+ flux in HEK293/Gα16 cells expressing FPRL-1", "setting": "[1]", "value": 2400, "unit": "nM"},
      {"measurement": "EC50(nM), transient Ca2+ flux in HEK293/Gα16 cells expressing FPR1", "setting": "[2]", "value": "> 10000", "unit": "nM"}
    ]},
    {"binder": "SLLWLTCRPWEAM", "note": "[peptide A5, Ser-Leu-Leu-Trp-Leu-Thr-Cys-Arg-Pro-Trp-Glu-Ala-Met]", "values": [
      {"measurement": "EC50, calcium mobilization in indo-1 loaded human neutrophils", "setting": "[3]", "value": "~300", "unit": "nM"},
      {"measurement": "apparent EC50, induction of β-galactosidase activity by synthetic peptide added to yeast strain CY6565", "setting": "[3]", "value": "~5000", "unit": "nM"},
      {"measurement": "induction of β-galactosidase activity (FUSI-lacZ, yeast)", "setting": "[3]", "value": 7, "unit": "fold"},
      {"measurement": "stimulation over background levels of β-galactosidase (fus1-lacZ, yeast)", "setting": "[3]", "value": 8, "unit": "fold"},
      {"measurement": "EC50(nM), transient Ca2+ flux in HEK293/Gα16 cells expressing FPRL-1", "setting": "[1]", "value": 35, "unit": "nM"},
      {"measurement": "EC50(nM), transient Ca2+ flux in HEK293/Gα16 cells expressing FPR1", "setting": "[2]", "value": "> 10000", "unit": "nM"}
    ]},
    {"binder": "CPAAVLWRWVPM", "note": "[peptide AF-1]", "values": [
      {"measurement": "EC50(nM), transient Ca2+ flux in HEK293/Gα16 cells expressing FPRL-1", "setting": "[1]", "value": 16, "unit": "nM"},
      {"measurement": "EC50(nM), transient Ca2+ flux in HEK293/Gα16 cells expressing FPR1", "setting": "[2]", "value": 5000, "unit": "nM"}
    ]},
    {"binder": "SMCPTASAWVWLM", "note": "[peptide AF-2]", "values": [
      {"measurement": "EC50(nM), transient Ca2+ flux in HEK293/Gα16 cells expressing FPRL-1", "setting": "[1]", "value": 87, "unit": "nM"},
      {"measurement": "EC50(nM), transient Ca2+ flux in HEK293/Gα16 cells expressing FPR1", "setting": "[2]", "value": 690, "unit": "nM"}
    ]}
  ]
}
